Results as given in patent publication US20230045873A1 (ONCOONE RESEARCH AND DEVELOPMENT, published 2023).

Target: T1, oxMIF (recombinant human MIF immobilized into microwell plates, transforming MIF to oxMIF) (human, UniProt P14174 2-115)
T1 construct: also called immobilized MIF (oxMIF); immobilized oxMIF
Test: ELISA on immobilized MIF (oxMIF), protein L-HRP detection, mean of triplicate
Experimental: Recombinant human MIF (1 μg/ml) diluted in PBS was immobilized into microwell plates (transforming MIF to oxMIF according to Thiele M. et al., 2015, J Immunol 2015; 195:2343-2352). After blocking, the bispecific antibodies were added to the plates at different concentrations. Bound bispecific antibodies were detected using protein L-HRP conjugate. Plates were developed by adding 3 3′5 5′tetramethylbenzidine (TMB) and chromogenic reaction was stopped with […]. OD was measured at 450 nm.
The binding curves of anti-oxMIF/CD3 bispecific antibodies C0061 and C0062 binding towards immobilized MIF (oxMIF) in an ELISA are depicted in FIG. 4. The monospecific anti-oxMIF antibody C0008 was used as positive control for oxMIF binding. EC50 values of the binding curves, which reflect rough KD estimates, were calculated by 4-parameter fit.

T1 sequence (P14174 2-115 limits assumed): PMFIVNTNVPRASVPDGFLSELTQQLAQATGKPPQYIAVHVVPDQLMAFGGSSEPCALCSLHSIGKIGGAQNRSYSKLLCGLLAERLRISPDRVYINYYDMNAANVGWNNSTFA

B1: C0061 (Anti-oxMIF Fab and anti-oxMIF/anti-CD3 BiTE fused to Fc; Fab-BiTE-Fc) (bispecific antibody, human IgG1, kappa)
heavy: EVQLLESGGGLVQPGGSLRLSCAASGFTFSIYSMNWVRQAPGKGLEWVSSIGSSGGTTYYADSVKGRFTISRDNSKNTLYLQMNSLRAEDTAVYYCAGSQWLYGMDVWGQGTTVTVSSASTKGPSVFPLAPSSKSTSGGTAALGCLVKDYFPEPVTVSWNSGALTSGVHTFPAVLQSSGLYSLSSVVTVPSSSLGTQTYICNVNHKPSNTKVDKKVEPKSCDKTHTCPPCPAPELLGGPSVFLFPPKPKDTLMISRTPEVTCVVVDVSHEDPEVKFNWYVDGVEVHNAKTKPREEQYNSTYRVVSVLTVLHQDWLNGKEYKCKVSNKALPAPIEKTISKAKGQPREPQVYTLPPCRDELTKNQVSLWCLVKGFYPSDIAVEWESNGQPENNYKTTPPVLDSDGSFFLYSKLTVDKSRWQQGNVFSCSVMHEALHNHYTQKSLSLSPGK
chain: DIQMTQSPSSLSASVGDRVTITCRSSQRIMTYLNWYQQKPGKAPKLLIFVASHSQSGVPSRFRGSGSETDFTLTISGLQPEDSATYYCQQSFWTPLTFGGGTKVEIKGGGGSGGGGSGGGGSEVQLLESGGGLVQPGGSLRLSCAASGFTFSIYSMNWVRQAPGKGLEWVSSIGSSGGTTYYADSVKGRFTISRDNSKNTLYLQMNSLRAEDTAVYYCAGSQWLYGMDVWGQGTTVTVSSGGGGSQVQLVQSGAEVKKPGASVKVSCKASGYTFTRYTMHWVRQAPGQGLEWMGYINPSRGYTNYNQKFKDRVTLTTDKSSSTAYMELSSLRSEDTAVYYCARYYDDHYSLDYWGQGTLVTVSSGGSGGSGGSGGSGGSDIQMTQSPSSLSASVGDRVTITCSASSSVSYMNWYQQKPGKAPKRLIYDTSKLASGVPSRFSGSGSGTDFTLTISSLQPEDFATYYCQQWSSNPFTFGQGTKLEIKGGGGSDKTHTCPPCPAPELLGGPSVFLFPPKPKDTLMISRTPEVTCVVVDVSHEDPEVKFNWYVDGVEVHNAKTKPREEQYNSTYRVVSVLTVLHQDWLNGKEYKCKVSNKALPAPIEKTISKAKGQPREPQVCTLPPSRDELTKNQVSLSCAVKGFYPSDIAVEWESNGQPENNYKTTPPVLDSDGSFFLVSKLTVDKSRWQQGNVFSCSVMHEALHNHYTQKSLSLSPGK
light: DIQMTQSPSSLSASVGDRVTITCRSSQRIMTYLNWYQQKPGKAPKLLIFVASHSQSGVPSRFRGSGSETDFTLTISGLQPEDSATYYCQQSFWTPLTFGGGTKVEIKRTVAAPSVFIFPPSDEQLKSGTASVVCLLNNFYPREAKVQWKVDNALQSGNSQESVTEQDSKDSTYSLSSTLTLSKADYEKHKVYACEVTHQGLSSPVTKSFNRGEC
notes: Three polypeptides; bivalent for oxMIF, monovalent for CD3
Which EC50 does the source give for B1 here?
The EC50 was 0.9 nM.
